From patent US20250304927A1, “PRO-PEPTIDE VARIANTS FOR MODULATING ACTIVITY OF TRANSGLUTAMINASES” (CURIE CO. INC., priority 2022, published 2025) come the findings set out here.

Bounds are passed on as bounds.

The target in one data set is T1, mature evolved transglutaminase (SEQ ID NO: 5) (Streptomyces mobaraensis, UniProt P81453, G359A/K167H/K227R/K228R/N358M/Q126S/Q150A/Q200L).
T1 construct: hexa-His tag with two amino acid linker (C); made in house; host or cells: E. coli BL21 (DE3)
T1 sequence (P81453 other isoform, or with tags, fused parts or gaps Q126S/Q150A/K167H/Q200L/K227R/K228R/N358M/G359A): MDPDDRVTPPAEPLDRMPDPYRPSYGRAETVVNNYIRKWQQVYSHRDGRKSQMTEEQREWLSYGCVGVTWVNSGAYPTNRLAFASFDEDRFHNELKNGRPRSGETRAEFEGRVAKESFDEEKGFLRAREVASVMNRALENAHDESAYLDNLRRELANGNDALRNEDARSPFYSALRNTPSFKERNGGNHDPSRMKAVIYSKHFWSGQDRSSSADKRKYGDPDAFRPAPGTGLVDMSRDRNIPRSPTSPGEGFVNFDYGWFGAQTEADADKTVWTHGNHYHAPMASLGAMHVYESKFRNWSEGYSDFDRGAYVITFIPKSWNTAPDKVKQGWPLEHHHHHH
Briefly: casein assay, inhibition by pro-peptide variants (Method B, activated zymogen). To be noted: relative to wild-type pro-peptide, diluted approximately 20-fold into casein assay solution. Also on record: key: The symbol, —, represents not determined, neutral, or reduced performance. The class given is biochemical. An excerpt: Method B. The gene coding for a Pro-transglutaminase (i.e., zymogen form of transglutaminase) variant with the wild-type pro-domain (SEQ ID NO: 2) and an evolved mature domain including a C-terminal His tag (SEQ ID NO: 5), and was cloned into a pET vector operatively linked to the T7 promoter. The expression vector also contains the pMB1 origin of replication and a kanamycin resistance gene. The resulting plasmid was transformed first into E. coli DH-10B, using standard methods known in the art. […]
A secondary screen was performed to determine initial rate of transglutaminase in the presence of the pro-peptide variants using transglutaminase-catalyzed labeling of casein with dansylcadaverine (e.g., a commercially available kit such as the Transglutaminase Fluorogenic Activity Assay Kit, T036, Zedira, Germany). Transglutaminase activity was monitored by measuring the fluorescence (excitation wavelength 332 nm; emission wavelength 500 nm) using a BioTek Synergy H1 microplate reader. Transglutaminase-catalyzed covalent coupling (crosslinking) of monodansylcadaverine with N,N-dimethylcasein produces a product that causes a shift in intensity and wavelength of fluorescence of the dansyl group now linked to the casein. The relative transglutaminase activity is shown by increase of fluorescence intensity over time. […]
“D2I, E2S, D21T: combination variant of pro-peptide SEQ ID NO: 2, Method B; E2S probably E7S (MINGAGSETKSYAETYRLTATDVANINALNESAPAASSAGPSFRAP)”: the Inhibition is on record as more than 2 fold.
On to “D21T: substitution variant of pro-peptide SEQ ID NO: 2 (MDNGAGEETKSYAETYRLTATDVANINALNESAPAASSAGPSFRAP) [Variant D21T]”, for which the Inhibition result is “—”.

In the next data set the target is T1, mature evolved transglutaminase (SEQ ID NO: 5). Briefly: transglutaminase thermostability: activity after being held at 37-50 °C. More on the design: key: The symbol, —, represents not determined, neutral, or reduced performance. The class given is biochemical. To be noted: relative to wild-type pro-peptide; held at 37° C.-50° C. for 30 minutes, diluted 10-fold to 100-fold. As for the experimental part:
The terms “stability” and “thermostability” are used interchangeably to refer to increased residual activity of mature transglutaminase after incubation at elevated temperatures. In some embodiments, a pro-peptide variant increases the stability of a mature transglutaminase compared to the wild type pro-peptide. Measurement of stability is depicted in Example 4.
It is believed that these pro-peptide variants confer thermal stability to mature transglutaminase.
As for “E7S, D21T, D22Q: combination variant of pro-peptide SEQ ID NO: 2, Method B (MDNGAGSETKSYAETYRLTATQVANINALNESAPAASSAGPSFRAP)”, the Thermostability entry is reported as “—”.
On to “L18V, D21T: combination variant of pro-peptide SEQ ID NO: 2, Method B (MDNGAGEETKSYAETYRVTATDVANINALNESAPAASSAGPSFRAP)”, for which the Thermostability entry is recorded as “—”.
As for “D2F: substitution variant of pro-peptide SEQ ID NO: 2 (MFNGAGEETKSYAETYRLTADDVANINALNESAPAASSAGPSFRAP) [Variant D2F]”, the Thermostability result is recorded as “—”.
“D2S, E7S, D21T, D22Q: combination variant of pro-peptide SEQ ID NO: 2, Method B (MSNGAGSETKSYAETYRLTATQVANINALNESAPAASSAGPSFRAP)”: the Thermostability entry is on record as “—”.
Same read-out and setting: the same measure for “D2I, E7S, D21I: combination variant of pro-peptide SEQ ID NO: 2, Method B (MINGAGSETKSYAETYRLTAIDVANINALNESAPAASSAGPSFRAP)”: “—”.
On the same count and under the same terms, then “D2S, E7S, D21I: combination variant of pro-peptide SEQ ID NO: 2, Method B (MSNGAGSETKSYAETYRLTAIDVANINALNESAPAASSAGPSFRAP)”, with “—”.
The same measure, in the same setting: the same measure for “E7S, D21R: combination variant of pro-peptide SEQ ID NO: 2, Method B (MDNGAGSETKSYAETYRLTARDVANINALNESAPAASSAGPSFRAP)”: “—”; for “D2I, E2S, D21T: combination variant of pro-peptide SEQ ID NO: 2, Method B; E2S probably E7S (MINGAGSETKSYAETYRLTATDVANINALNESAPAASSAGPSFRAP)”: “—”; for “D2S, D21T, D22Q: combination variant of pro-peptide SEQ ID NO: 2, Method B (MSNGAGEETKSYAETYRLTATQVANINALNESAPAASSAGPSFRAP)”: “—”.
On to “D2S, L18V, D22Q: combination variant of pro-peptide SEQ ID NO: 2, Method B (MSNGAGEETKSYAETYRVTADQVANINALNESAPAASSAGPSFRAP)”, for which the Thermostability result was “—”.
Same read-out and setting: the same measure for “D2S, D22Q: combination variant of pro-peptide SEQ ID NO: 2, Method B (MSNGAGEETKSYAETYRLTADQVANINALNESAPAASSAGPSFRAP)”: “—”; for “D2S, E7S, D22Q: combination variant of pro-peptide SEQ ID NO: 2, Method B (MSNGAGSETKSYAETYRLTADQVANINALNESAPAASSAGPSFRAP)”: “—”; for “E7S, L18V, D21I: combination variant of pro-peptide SEQ ID NO: 2, Method B (MDNGAGSETKSYAETYRVTAIDVANINALNESAPAASSAGPSFRAP)”: “—”.
On to “D2I, E7S, L18V, D21R: combination variant of pro-peptide SEQ ID NO: 2, Method B (MINGAGSETKSYAETYRVTARDVANINALNESAPAASSAGPSFRAP)”, for which the Thermostability entry is reported as “—”.
Still for that read-out and setting: then “D21T, D22Q: combination variant of pro-peptide SEQ ID NO: 2, Method B (MDNGAGEETKSYAETYRLTATQVANINALNESAPAASSAGPSFRAP)”, with “—”.
With “E7S, D21T: combination variant of pro-peptide SEQ ID NO: 2, Method B (MDNGAGSETKSYAETYRLTATDVANINALNESAPAASSAGPSFRAP)”, the Thermostability result is recorded as “—”.
On the same count and under the same terms, then “D2S, E7S: combination variant of pro-peptide SEQ ID NO: 2, Method B (MSNGAGSETKSYAETYRLTADDVANINALNESAPAASSAGPSFRAP)”, with “—”; and “D2I, D22Q: combination variant of pro-peptide SEQ ID NO: 2, Method B (MINGAGEETKSYAETYRLTADQVANINALNESAPAASSAGPSFRAP)”, with “—”.
On the same count and under the same terms, then “L18V, D21T, D22Q: combination variant of pro-peptide SEQ ID NO: 2, Method B (MDNGAGEETKSYAETYRVTATQVANINALNESAPAASSAGPSFRAP)”, with “—”.

The next data set has as its target evolved variant of mature Streptomyces mobaraensis transglutaminase, including a two amino acid linker and hexa-his tag (Streptomyces mobaraensis) (UniProt P81453). As to the kind of experiment: cell-based or functional assay.
Details: not given
Consider “pro-peptide variant D2I, E2S, D21T (Method B)”, for which the Inhibition was more than 2 fold.
